One molecule from PMC11889887 (2025) can be followed below.

Bridge positions count the residues as written; N and C are the ends. Square brackets hold non-standard residues; d marks the D form. Ends that are not written are not given here. Lys(N3) = [N-]=[N+]=NCCCC[C@H](N)C(=O)O; Pra = C#CC[C@H](N)C(=O)O

Assay [1] addresses T1, biotinylated recombinant human αvβ8 integrin (human, UniProt P06756 31-1048; P26012 43-684, biotin (chain and site not stated) | biotin (chain and site not stated)).
T1 chain 1: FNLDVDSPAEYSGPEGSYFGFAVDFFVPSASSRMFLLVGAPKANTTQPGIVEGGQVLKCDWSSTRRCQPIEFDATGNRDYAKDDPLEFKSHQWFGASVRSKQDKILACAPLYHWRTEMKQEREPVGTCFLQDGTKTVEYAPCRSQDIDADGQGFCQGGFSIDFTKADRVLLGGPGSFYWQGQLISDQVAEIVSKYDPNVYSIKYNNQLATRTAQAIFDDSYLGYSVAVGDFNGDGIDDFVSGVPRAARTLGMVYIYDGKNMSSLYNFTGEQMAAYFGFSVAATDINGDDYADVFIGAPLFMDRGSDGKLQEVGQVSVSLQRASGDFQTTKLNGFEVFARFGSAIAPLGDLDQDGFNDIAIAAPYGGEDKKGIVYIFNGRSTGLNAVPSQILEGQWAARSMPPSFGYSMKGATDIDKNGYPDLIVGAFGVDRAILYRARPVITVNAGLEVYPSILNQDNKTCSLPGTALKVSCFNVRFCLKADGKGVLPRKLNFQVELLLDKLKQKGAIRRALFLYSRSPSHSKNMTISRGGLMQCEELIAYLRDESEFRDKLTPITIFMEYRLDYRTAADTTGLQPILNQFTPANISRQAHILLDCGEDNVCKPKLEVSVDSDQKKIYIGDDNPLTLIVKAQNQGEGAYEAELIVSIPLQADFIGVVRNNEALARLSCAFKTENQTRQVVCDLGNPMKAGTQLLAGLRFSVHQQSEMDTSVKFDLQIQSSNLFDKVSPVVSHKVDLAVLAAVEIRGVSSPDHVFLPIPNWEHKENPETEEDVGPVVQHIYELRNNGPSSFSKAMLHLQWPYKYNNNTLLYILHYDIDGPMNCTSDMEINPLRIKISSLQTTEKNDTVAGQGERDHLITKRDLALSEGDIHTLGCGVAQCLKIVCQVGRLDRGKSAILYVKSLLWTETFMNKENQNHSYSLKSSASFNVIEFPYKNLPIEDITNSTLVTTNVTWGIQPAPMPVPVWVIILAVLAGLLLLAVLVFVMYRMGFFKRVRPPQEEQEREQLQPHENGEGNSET
T1 chain 2: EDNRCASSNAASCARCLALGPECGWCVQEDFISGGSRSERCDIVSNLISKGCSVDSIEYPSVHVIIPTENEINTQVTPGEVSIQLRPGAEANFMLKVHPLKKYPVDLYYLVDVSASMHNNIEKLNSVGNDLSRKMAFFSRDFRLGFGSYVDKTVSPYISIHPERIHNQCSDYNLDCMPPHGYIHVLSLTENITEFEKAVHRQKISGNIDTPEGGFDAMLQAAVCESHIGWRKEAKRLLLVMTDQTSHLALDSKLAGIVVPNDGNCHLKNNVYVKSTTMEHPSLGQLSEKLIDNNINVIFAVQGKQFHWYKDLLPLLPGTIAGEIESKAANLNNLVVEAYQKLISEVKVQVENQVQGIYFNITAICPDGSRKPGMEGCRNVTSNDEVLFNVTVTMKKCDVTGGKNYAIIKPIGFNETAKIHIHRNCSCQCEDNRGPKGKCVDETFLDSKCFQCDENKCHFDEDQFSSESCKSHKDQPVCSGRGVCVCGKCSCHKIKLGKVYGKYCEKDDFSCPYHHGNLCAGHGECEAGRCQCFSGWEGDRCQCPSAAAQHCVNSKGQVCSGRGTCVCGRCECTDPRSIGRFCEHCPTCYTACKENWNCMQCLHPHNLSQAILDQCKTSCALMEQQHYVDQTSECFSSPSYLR
As to the kind of experiment: ELISA; competition with latent TGFβ1. (In general: ELISA stands for enzyme-linked immunosorbent assay.)

The target in assay [2] is T2, biotinylated recombinant human αvβ6 integrin (human, UniProt P06756 31-1048; P18564 22-709, biotin (chain and site not stated) | biotin (chain and site not stated)).
T2 chain 1: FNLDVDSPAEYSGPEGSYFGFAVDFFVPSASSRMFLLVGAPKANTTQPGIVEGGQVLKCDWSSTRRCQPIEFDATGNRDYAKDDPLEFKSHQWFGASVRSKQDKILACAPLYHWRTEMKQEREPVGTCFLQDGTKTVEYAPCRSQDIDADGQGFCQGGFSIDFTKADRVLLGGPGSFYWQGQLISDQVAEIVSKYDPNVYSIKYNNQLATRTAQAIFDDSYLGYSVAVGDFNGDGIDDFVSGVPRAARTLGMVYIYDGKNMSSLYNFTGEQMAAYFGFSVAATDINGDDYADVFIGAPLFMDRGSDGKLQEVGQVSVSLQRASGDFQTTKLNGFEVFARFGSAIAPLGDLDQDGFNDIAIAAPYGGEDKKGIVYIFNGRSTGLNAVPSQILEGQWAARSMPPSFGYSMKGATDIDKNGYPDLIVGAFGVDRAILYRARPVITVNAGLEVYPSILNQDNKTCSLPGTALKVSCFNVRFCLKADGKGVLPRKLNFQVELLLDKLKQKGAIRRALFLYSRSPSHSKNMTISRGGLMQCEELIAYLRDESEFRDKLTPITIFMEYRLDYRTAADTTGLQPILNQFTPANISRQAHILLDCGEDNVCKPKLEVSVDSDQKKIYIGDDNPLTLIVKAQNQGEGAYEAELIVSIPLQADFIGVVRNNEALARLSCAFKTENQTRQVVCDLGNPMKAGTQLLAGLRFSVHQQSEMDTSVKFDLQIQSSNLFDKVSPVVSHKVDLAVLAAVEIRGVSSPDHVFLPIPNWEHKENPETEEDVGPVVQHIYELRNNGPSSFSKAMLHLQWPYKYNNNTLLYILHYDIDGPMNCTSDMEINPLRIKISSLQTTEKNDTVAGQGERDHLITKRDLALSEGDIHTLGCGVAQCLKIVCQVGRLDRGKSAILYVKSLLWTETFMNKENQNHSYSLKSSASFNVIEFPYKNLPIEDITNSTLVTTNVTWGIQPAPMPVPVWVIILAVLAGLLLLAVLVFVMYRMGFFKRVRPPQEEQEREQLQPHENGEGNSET
T2 chain 2: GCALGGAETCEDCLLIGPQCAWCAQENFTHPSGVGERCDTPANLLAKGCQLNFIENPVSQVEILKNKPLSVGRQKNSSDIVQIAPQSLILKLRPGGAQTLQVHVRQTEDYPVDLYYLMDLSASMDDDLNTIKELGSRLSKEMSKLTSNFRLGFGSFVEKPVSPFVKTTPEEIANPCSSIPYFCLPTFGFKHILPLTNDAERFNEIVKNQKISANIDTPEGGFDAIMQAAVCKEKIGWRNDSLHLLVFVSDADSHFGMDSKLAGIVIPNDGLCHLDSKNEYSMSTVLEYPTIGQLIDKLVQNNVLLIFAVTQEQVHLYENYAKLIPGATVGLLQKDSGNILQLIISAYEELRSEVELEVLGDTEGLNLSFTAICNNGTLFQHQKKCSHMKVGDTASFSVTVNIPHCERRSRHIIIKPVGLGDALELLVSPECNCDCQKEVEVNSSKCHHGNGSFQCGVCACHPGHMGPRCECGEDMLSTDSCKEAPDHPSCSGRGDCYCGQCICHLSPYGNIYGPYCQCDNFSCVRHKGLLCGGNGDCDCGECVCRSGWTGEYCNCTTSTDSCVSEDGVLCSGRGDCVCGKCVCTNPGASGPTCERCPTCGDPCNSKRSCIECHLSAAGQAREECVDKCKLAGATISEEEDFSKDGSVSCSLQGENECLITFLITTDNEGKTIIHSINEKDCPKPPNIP
The assay can be described thus: ELISA; competition with latent TGFβ1.

B1: peptide 5a (chromogranin A-derived peptide) (peptide)
chain: CFETLRGDLRILSILR[Pra]QNL[Lys(N3)]KELQD-NH2
modifications: triazole 17-21
The Ki is the dissociation constant of the complex between target and ligand, obtained from inhibition or displacement. Take B1: the inhibition constant (Ki) in assay [1] was found to be 2.74 nM; in assay [2], 0.139 nM.
